# Laboratory results taken from US10866245B2, “Methods for dye selection for protein melt temperature determinations” (LIFE TECHNOLOGIES CORPORATION, priority 2013, dated 2020).
# T1: T4 DNA ligase (Enterobacteria phage T4, UniProt P00970)
# T1 sequence (P00970 1-487): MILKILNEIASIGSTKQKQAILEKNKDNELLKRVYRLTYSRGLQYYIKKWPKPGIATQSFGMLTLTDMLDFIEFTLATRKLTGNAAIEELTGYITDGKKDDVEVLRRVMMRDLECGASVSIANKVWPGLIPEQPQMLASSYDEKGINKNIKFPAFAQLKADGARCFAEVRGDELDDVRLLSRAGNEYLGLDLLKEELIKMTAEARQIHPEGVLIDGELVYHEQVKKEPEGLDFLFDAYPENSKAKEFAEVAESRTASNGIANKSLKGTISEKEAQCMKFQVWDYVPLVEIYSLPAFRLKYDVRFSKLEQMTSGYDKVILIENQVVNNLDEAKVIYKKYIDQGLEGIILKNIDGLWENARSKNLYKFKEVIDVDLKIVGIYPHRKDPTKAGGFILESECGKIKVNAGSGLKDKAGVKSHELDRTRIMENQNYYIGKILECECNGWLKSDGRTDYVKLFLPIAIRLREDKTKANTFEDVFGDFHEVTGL
# B1: Human Decorin: Human Decorin Protein, P/N 143-DE (R&D Systems) (protein, UniProt P07585 31-359, looked up)
# Decorin: DEASGIGPEVPDDRDFEPSLGPVCPFRCQCHLRVVQCSDLGLDKVPKDLPPDTTLLDLQNNKITEIKDGDFKNLKNLHALILVNNKISKVSPGAFTPLVKLERLYLSKNQLKELPEKMPKTLQELRAHENEITKVRKVTFNGLNQMIVIELGTNPLKSSGIENGAFQGMKKLSYIRIADTNITSIPQGLPPSLTELHLDGNKISRVDAASLKGLNNLAKLGLSFNSISAVDNGSLANTPHLRELHLDNNKLTRVPGGLAEHKYIQVVYLHNNNISVVGSSDFCPPGHNTKKASYSGVSLFSNPVQYWEIQPSTFRCVYVRSAIQLGNYK
# B2: T4 DNA Ligase: T4 DNA ligase enzyme prepared in PBS and 5% glycerol at 3 mg/ml (protein, UniProt P00970 1-487, looked up)
# DNA ligase: T1 sequence (P00970 1-487)
# Legend:
# [1] = biological target: T1, T4 DNA ligase; assay: Protein Thermal Shift assay of T4 DNA ligase with and without ligand ATP (SYPRO Orange); format: binding; settings: derivative curve FIG. 2B
# Procedure: (§1) Applied Biosystems® Real-time PCR Systems instruments, as described above, are used to plot the fluorescence data throughout the thermal melt, generating a fluorescence profile specific to the protein of interest within the test buffer environment or in the presence of a test ligand. A MATLAB based TmTool™ which utilizes the Boltzmann equation to calculate the Tm of the protein from the fluorescence melt plot is used to process the raw data recorded with the instrument.
# T4 DNA ligase is prepared in phosphate buffered saline (PBS; 137 mM NaCl, 10 mM Phosphate, 2.7 mM KCl, pH 7.4) and 5% glycerol at a concentration of 3 mg/ml of protein. T4 DNA ligase samples are prepared using SYPRO® Orange with and without ligand (ATP at 10 mM concentration). SYPRO® Orange dye solution is prepared as a 1000× stock from a 5000× stock solution in DMSO, then diluted to a 10× stock solution using 100 mM Potassium phosphate buffer. The SYPRO® Orange-protein reaction mixture is prepared by using 1 μl of the protein solution, 2 μl of the 10× dye solution, and 17 μl of the PTS buffer. Quadruplicate samples for each protein-dye mixture are run on a ViiA™ 7 qPCR instrument (Life Technologies, Inc.) and analysis using Protein Thermal Shift™ software (Life Technologies Inc.). […]
# [2] = Protein Thermal Shift of RecA with dye formulation 7 versus SYPRO Orange alone; format: physicochemical
# Procedure: (§2) The assays are run on a ViiA™7 qPCR instrument (Life Technologies, Inc.) and analyzed using Protein Thermal Shift™ software (Life Technologies Inc.). The run time conditions are: a temperature hold at 20° C. for one minute followed by a thermal ramp of 0.05° C. with continuous data collection to 95° C., followed by a 1 minute hold at the final temperature.
# PTS is performed on RecA, using conditions as is discussed in Example 6. 1.4 μl of each of the 100× dye formulations is added according to Table 9. PTS reproducibility is improved with dye formulation 7 (SYPRO® Orange, SYPRO® Red and SYPRO® Tangerine) (FIGS. 13A and 13B) using an X5-M5 filter relative to SYPRO® Orange alone using an X4-M4 filter. In FIG. 13A, using the mixture of dyes (formulation 7), the two melt curves shown are for RecA in E3 and C3 buffer, respectively.
# [3] = Protein Thermal Shift buffer and salt screen of RecA (SYPRO Orange, Boltzmann fit); format: physicochemical
# Source text: as §1
# FIGS. 3A through 3C illustrate the method of calculating Tm from a typical PTS. The MATLAB based TmTool™ calculates the Tm of the protein from the shape of the fluorescence plot in FIG. 3a. The thermo-stability of RecA in different buffer and salt conditions is compared and the region of interest is fitted to the Boltzmann equation. RecA is prepared in phosphate buffered saline (PBS; 137 mM NaCl, 10 mM Phosphate, 2.7 mM KCl, pH 7.4) and 5% glycerol at a concentration of 3 mg/ml of protein. SYPRO® Orange dye solution is prepared as a 1000× stock from a 5000× stock solution in DMSO, then diluted to a 10× stock solution with PTS buffer.
# as §2, with “SYPRO® Orange-protein Protein Thermal Shift Assay reaction mixture is prepared by using 1 μl of the protein solution, 2 μl of the 10× dye solution, and 17 μl of each of experimental buffer solutions A1-A4, B1-B4, C1-C4, and D1-D4. Samples for each protein-dye mixture” for “assays”, “ViiA™ 7” for “ViiA™7”, “analysis” for “analyzed”
# The Applied Biosystems' TmTool™ calculator provides the protein Tm calculated via Boltzmann curve-fitting. […] Thus, the methods can be used to identify salt and pH concentrations best suited for stability of a protein as well as conditions for protein storage, crystallography, etc. The Boltzmann equation used is: […]
# [4] = biological target: T2, Human Decorin Protein (Homo sapiens, UniProt P07585); assay: Protein Thermal Shift of human Decorin, anti-Decorin antibody and their mixture; format: binding; settings: isolated protein or isolated antibody
# T2 construct: purchased R&D Systems 143-DE
# Procedure: T4 DNA ligase is prepared in phosphate buffered saline (PBS; 137 mM NaCl, 10 mM Phosphate, 2.7 mM KCl, pH 7.4) and 5% glycerol at a concentration of 3 mg/ml of protein. T4 DNA ligase samples are prepared using SYPRO® Orange with and without ligand (ATP at 10 mM concentration). SYPRO® Orange dye solution is prepared as a 1000× stock from a 5000× stock solution in DMSO, then diluted to a 10× stock solution using 100 mM Potassium phosphate buffer. The SYPRO® Orange-protein reaction mixture is prepared by using 1 μl of the protein solution, 2 μl of the 10× dye solution, and 17 μl of the PTS buffer. Quadruplicate samples for each protein-dye mixture are run on a ViiA™ 7 qPCR instrument (Life Technologies, Inc.) and analysis using Protein Thermal Shift™ software (Life Technologies Inc.). The run time conditions are: a temperature hold at 20° C. for one minute followed by a thermal ramp of 0.05° C. with continuous data collection to 95° C., followed by a 1 minute hold at the final temperature.
# An assay was performed to identify whether PTS can be used to analyze binding of an antibody to its ligand. The method is performed using buffer and reaction conditions as described in EXAMPLE 1.
molecule,measurement,setting,value
"Nc1ncnc2c1ncn2[C@@H]1O[C@H](COP(=O)(O)OP(=O)(O)OP(=O)(O)O)[C@@H](O)[C@H]1O [ATP, reference compound]",Tm of complexed T4 DNA Ligase,[1]; with ligand ATP at 10 mM,about 48 °C
RecA: RecA DNA repair protein,Tm,"[2]; Buffer C3, SYPRO Orange alone, X4-M4 filter",53.3 °C
same,Tm,"[2]; Buffer C3, dye formulation 7, X5-M5 filter",49.5 °C
same,Tm,"[2]; Buffer E3, SYPRO Orange alone, X4-M4 filter",48.1 °C
same,Tm,"[2]; Buffer E3, dye formulation 7, X5-M5 filter",45.7 °C
same,Tm in ° C.,"[3]; Buffer A1: 100 mM Sodium Citrate, pH 5.5, 0 mM NaCl",42.2 °C
same,Tm in ° C.,"[3]; Buffer A2: 100 mM Sodium Citrate, pH 5.5, 50 mM NaCl",41.7 °C
same,Tm in ° C.,"[3]; Buffer A3: 100 mM Sodium Citrate, pH 5.5, 100 mM NaCl",42.1 °C
same,Tm in ° C.,"[3]; Buffer A4: 100 mM Sodium Citrate, pH 5.5, 150 mM NaCl",41.6 °C
same,Tm in ° C.,"[3]; Buffer B1: 100 mM Potassium Phosphate, pH 6.0, 0 mM NaCl",41.8 °C
same,Tm in ° C.,"[3]; Buffer B2: 100 mM Potassium Phosphate, pH 6.0, 50 mM NaCl",41.2 °C
same,Tm in ° C.,"[3]; Buffer B3: 100 mM Potassium Phosphate, pH 6.0, 100 mM NaCl",41.2 °C
same,Tm in ° C.,"[3]; Buffer B4: 100 mM Potassium Phosphate, pH 6.0, 150 mM NaCl",41.1 °C
same,Tm in ° C.,"[3]; Buffer C1: 100 mM Potassium Phosphate, pH 7.0, 0 mM NaCl",46.8 °C
same,Tm in ° C.,"[3]; Buffer C2: 100 mM Potassium Phosphate, pH 7.0, 50 mM NaCl",46.6 °C
same,Tm in ° C.,"[3]; Buffer C3: 100 mM Potassium Phosphate, pH 7.0, 100 mM NaCl",46 °C
same,Tm in ° C.,"[3]; Buffer C4: 100 mM Potassium Phosphate, pH 7.0, 150 mM NaCl",45.7 °C
B1,Tm,[4],47.7 °C
B2,Tm of uncomplexed T4 DNA Ligase,[1]; no ligand,about 42 °C
